Results: US8815529B2, “Sulfotransferase assay” (Research & Diagnostics Systems, Inc., priority 2011, dated 2014)

Columns and labels:
Format in all cases: biochemical
[1] = CHST3 enzyme dose curve, gPAPP-coupled assay; settings: 10 mg/ml CS, 0.5 mM PAPS, 1 μg gPAPP
Experimental: (§1) In the following examples, the gPAPP used was recombinant mouse gPAPP expressed in CHO cells as an N-terminal His-tagged recombinant protein containing amino acids from E51 to K356, created by R & D Systems. The sequence was based on accession number NP 808398 from the National Center for Biotechnology Information. The chondroitin sulfate (CS) and p-nitrophenol (pNP) were obtained from Sigma Aldrich. The PAPS was prepared by R & D Systems using recombinant S. cerevisiae ATP sulurylase and P. chrysogenum APS kinase. The APS kinase was also prepared by R & D Systems. Recombinant human SULT1A1, CHST3, CD73, TNAP and Malachite Green Phosphate Detection Kit were from R & D Systems. Protein concentrations were quantified using the Bradford assay as described by Bradford, M. M., A rapid and sensitive method for the quantitation of microgram quantities of protein utilizing the principle of protein-dye binding. Anal Biochem. 1976. […] Phosphate levels were determined using the Malachite Green Phosphate Detection Kit available from R & D Systems, according to the package instructions. […]
First, the optimal concentration for CS was visually determined to be >5 mg/ml and the optimal concentration for PAPS was visually determined to be about 0.5 mM using FIGS. 10A and 10B by finding the substrate concentration corresponding to the highest point in the curves. […]

[2] = Coupling capacity of gPAPP; settings: 10 mM Mg2+, pH 7.5
Experimental: as §1
In this example, the coupling capacity of gPAPP was determined. […] The coupling capacity of gPAPP was determined by combining 1 μg gPAPP with increasing amounts of PAP, in the presence or absence of 0.5 mM PAPS in 50 μL assay buffer containing 10 mM Mg^2+ at pH 7.5 for either 20 or 40 minutes. […]

[3] = gPAPP activity: Mg2+ and pH dependence; settings: 0.025 μg gPAPP, 25 nmol PAP
Experimental: as §1
First, the activity of gPAPP in the presence of Mg^2+ was tested by combining 0.025 μg gPAPP, 25 nmol PAP and increasing amounts of Mg^2+ in 50 μL of assay buffer of 25 mM Tris at pH 7.5. […] In a second experiment, the activity of gPAPP was evaluated at various pH levels. […]

[4] = SULT1A1 enzyme dose curve, phosphatase-coupled sulfotransferase assay; settings: for rate of phosphate release: 0.25 mM PAPS, 0.25 mM pNP
Experimental: In the following examples, the gPAPP used was recombinant mouse gPAPP expressed in CHO cells as an N-terminal His-tagged recombinant protein containing amino acids from E51 to K356, created by R & D Systems. The sequence was based on accession number NP 808398 from the National Center for Biotechnology Information. The chondroitin sulfate (CS) and p-nitrophenol (pNP) were obtained from Sigma Aldrich. The PAPS was prepared by R & D Systems using recombinant S. cerevisiae ATP sulurylase and P. chrysogenum APS kinase. The APS kinase was also prepared by R & D Systems. Recombinant human SULT1A1, CHST3, CD73, TNAP and Malachite Green Phosphate Detection Kit were from R & D Systems. Protein concentrations were quantified using the Bradford assay as described by Bradford, M. M., A rapid and sensitive method for the quantitation of microgram quantities of protein utilizing the principle of protein-dye binding. Anal Biochem. 1976. Vol 72, Page 248-254, the relevant portions of which are hereby incorporated by reference. Phosphate levels were determined using the Malachite Green Phosphate Detection Kit available from R & D Systems, according to the package instructions. All examples were performed in a buffer of 25 mM Tris at pH 7.5.
A series of reactions was performed by combining various amounts of SULT1A1 with 0.25 mM PAPS and 0.25 mM pNP and with either 1 μg gPAPP alone, or both 1 μg gPAPP and 0.1 μg CD73 in 50 μL of Tris buffer containing 10 mM of MgCl2 at pH 7.5. […] Since gPAPP and CD73 together release two equivalents of phosphate from each PAP, the specific activity of SULT1A1 was averaged to 40.0±1.9 pmol/min/μg. This specific activity is consistent with the known results obtained using radioisotope assays.

B1: CHST3: recombinant human carbohydrate sulfotransferase 3 from R & D Systems (protein, UniProt Q7LGC8 1-479, looked up)
Carbohydrate sulfotransferase …: MEKGLTLPQDCRDFVHSLKMRSKYALFLVFVVIVFVFIEKENKIISRVSDKLKQIPQALADANSTDPALILAENASLLSLSELDSAFSQLQSRLRNLSLQLGVEPAMEAAGEEEEEQRKEEEPPRPAVAGPRRHVLLMATTRTGSSFVGEFFNQQGNIFYLFEPLWHIERTVSFEPGGANAAGSALVYRDVLKQLFLCDLYVLEHFITPLPEDHLTQFMFRRGSSRSLCEDPVCTPFVKKVFEKYHCKNRRCGPLNVTLAAEACRRKEHMALKAVRIRQLEFLQPLAEDPRLDLRVIQLVRDPRAVLASRMVAFAGKYKTWKKWLDDEGQDGLREEEVQRLRGNCESIRLSAELGLRQPAWLRGRYMLVRYEDVARGPLQKAREMYRFAGIPLTPQVEDWIQKNTQAAHDGSGIYSTQKNSSEQFEKWRFSMPFKLAQVVQAACGPAMRLFGYKLARDAAALTNRSVSLLEERGTFWVT
specific activity [1]: 1110 pmol/min/µg

B2: gPAPP: recombinant mouse gPAPP expressed in CHO cells, N-terminal His-tagged, amino acids E51 to K356 (protein, UniProt Q80V26 51-356, looked up, fragment)
chain: EVASDGGTVDLREMLAVAVLAAERGGDEVRRVRESNVLHEKSKGKTREGADDKMTSGDVLSNRKMFYLLKTAFPNVQINTEEHVDASDKEVIVWNRKIPEDILKEIAAPKEVPAESVTVWIDPLDATQEYTEDLRKYVTTMVCVAVNGKPVLGVIHKPFSEYTAWAMVDGGSNVKARSSYNEKTPKIIVSRSHAGMVKQVALQTFGNQTSIIPAGGAGYKVLALLDVPDMTQEKADLYIHVTYIKKWDICAGNAILKALGGHMTTLNGEEISYTGSDGIEGGLLASIRMNHQALVRKLPDLEKSGH
modifications: N-terminal His tag
notes: recombinant mouse gPAPP expressed in CHO cells, N-terminal His-tagged, amino acids E51 to K356
coupling capacity (PAP completely hydrolysed by 1 μg gPAPP) ([2]; 20 minute reaction): 8 nmol
coupling capacity (PAP completely hydrolysed by 1 μg gPAPP) ([2]; 40 minute reaction): 15 nmol
Mg2+ concentration at which maximum activity was achieved ([3]; 25 mM Tris pH 7.5): greater than 10 mM
pH of optimal activity ([3]; 10 mM Mg2+): ~7.5

B3: SULT1A1: recombinant human sulfotransferase SULT1A1 from R & D Systems (protein, UniProt P50225 1-295, looked up)
Sulfotransferase 1A1: MELIQDTSRPPLEYVKGVPLIKYFAEALGPLQSFQARPDDLLISTYPKSGTTWVSQILDMIYQGGDLEKCHRAPIFMRVPFLEFKAPGIPSGMETLKDTPAPRLLKTHLPLALLPQTLLDQKVKVVYVARNAKDVAVSYYHFYHMAKVHPEPGTWDSFLEKFMVGEVSYGSWYQHVQEWWELSRTHPVLYLFYEDMKENPKREIQKILEFVGRSLPEETVDFVVQHTSFKEMKKNPMTNYTTVPQEFMDHSISPFMRKGMAGDWKTTFTVAQNERFDADYAEKMAGCSLSFRSEL
specific activity ([4]; averaged over gPAPP alone and gPAPP plus CD73): 40.0 ± 1.9 pmol/min/µg
rate of phosphate release ([4]; coupled to both gPAPP and CD73): 83.7 pmol/min/µg
rate of phosphate release ([4]; coupled to gPAPP alone): 38.1 pmol/min/µg
